In the supplement of paper PMC10724198:
± gives the standard deviation of the averaged measurements.

What follows are sequences tested on Saccharomyces cerevisiae (assay: protein stability index of tFT-peptide fusion (C-terminal peptide) (PSI (0-1 scale)); higher = more stable (slower turnover)). Details: genetic background: wild type; temperature: 30 C.
Description: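 Multiplexed protein stability (MPS) profiling in S. cerevisiae. Random 12-aa peptides (tFT-X12 library) are fused to the C-terminus of a sfGFP-mCherry tandem fluorescent timer, after mCherry and a GGGS linker. Cells are FACS-sorted into 8 mCherry/sfGFP bins and deep-sequenced. The protein stability index (PSI) is the read-weighted bin average, scaled from 0 (unstable) to 1 (stable). Only peptides with >10 reads are reported; cells were grown at 30 °C in SC-His with glucose.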
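Further: PSI is a weighted mean of sequencing reads over stability bins, variants kept only with over 10 reads, mCherry proximal and sfGFP distal, peptide attached via GGGS linker.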

PPLLPPPPPPAP was tested. Which protein stability index did it give?
The protein stability index was 0.666 ± 0.032.

For IKKRKQYCKRIK, which protein stability index is on record?
The protein stability index was 0.6801 ± 0.0048.

Which protein stability index does the source give for ESAVHRTRRIPY here?
Its protein stability index is 0.7888 ± 0.0046.

PRPSRILPLPAP was tested. Which protein stability index did it give?
Its protein stability index is 0.65 ± 0.0072.

With AGHLLDVRLLVL as the sequence, how does the protein stability index read?
The protein stability index was 0.487 ± 0.057.

With PCFSCPPLFLRT as the sequence, how does the protein stability index read?
Its protein stability index is 0.631 ± 0.067.

For GTDSFQTTRRLI, which protein stability index is on record?
The protein stability index was 0.663 ± 0.022.

With NALLHPRSHLAF as the sequence, how does the protein stability index read?
Its protein stability index is 0.686 ± 0.033.

How did the protein stability index turn out when PSPTLGPVSFPH was run?
The protein stability index was 0.703 ± 0.014.

With KGRGKRRGARAT as the sequence, how does the protein stability index read?
Its protein stability index is 0.73 ± 0.053.

For KKKSKKKNKKKE, which protein stability index is on record?
Its protein stability index is 0.766 ± 0.11.

How did the protein stability index turn out when PVETVRCCLACP was run?
Its protein stability index is 0.64643 ± 0.00047.

Which protein stability index does the source give for PAACPTRTCLYP here?
The protein stability index was 0.719 ± 0.045.

MGVGCFCCLFVG was tested. Which protein stability index did it give?
The protein stability index was 0.541 ± 0.011.

For FAKLDRVGACRW, which protein stability index is on record?
Its protein stability index is 0.764 ± 0.013.

For PSALSSSAPSSP, which protein stability index is on record?
Its protein stability index is 0.667 ± 0.043.

Which protein stability index does the source give for VSEVDVRGKGIR here?
Its protein stability index is 0.783 ± 0.068.

For ISPFPSFPPTLS, which protein stability index is on record?
Its protein stability index is 0.734 ± 0.064.

Which protein stability index does the source give for WWGRWGASVGRG here?
Its protein stability index is 0.686 ± 0.033.

With ATHISCRRNRLY as the sequence, how does the protein stability index read?
The protein stability index was 0.57 ± 0.039.

KVLGRPVGMAYI was tested. Which protein stability index did it give?
Its protein stability index is 0.666 ± 0.034.

With WFCRFTGGRRLL as the sequence, how does the protein stability index read?
Its protein stability index is 0.671 ± 0.044.

Which protein stability index does the source give for ASWEARGWLGWA here?
Its protein stability index is 0.794 ± 0.05.

How did the protein stability index turn out when GNTPERVQRRWE was run?
Its protein stability index is 0.632 ± 0.086.

With APAPHSPNFPFS as the sequence, how does the protein stability index read?
Its protein stability index is 0.699 ± 0.008.

Which protein stability index does the source give for AVSPISLSDNIG here?
The protein stability index was 0.664 ± 0.018.

Which protein stability index does the source give for PHLAAPAPALQD here?
The protein stability index was 0.613 ± 0.056.

How did the protein stability index turn out when HNVLVYCGCALG was run?
Its protein stability index is 0.6032 ± 0.0036.

How did the protein stability index turn out when ILLFISGPPMSF was run?
Its protein stability index is 0.735 ± 0.062.

For LGSTPAVKPPCL, which protein stability index is on record?
The protein stability index was 0.688 ± 0.019.

How did the protein stability index turn out when GAVVLAGWGVLK was run?
The protein stability index was 0.718 ± 0.028.

PPPSHSLPSLPI was tested. Which protein stability index did it give?
The protein stability index was 0.626 ± 0.033.

With AGAICWFRHILI as the sequence, how does the protein stability index read?
The protein stability index was 0.67 ± 0.14.

With VKVKRCVRKVGG as the sequence, how does the protein stability index read?
The protein stability index was 0.687 ± 0.046.

LFRLRLFPHPHF was tested. Which protein stability index did it give?
Its protein stability index is 0.645 ± 0.087.

How did the protein stability index turn out when PSSCLPAHLRPP was run?
Its protein stability index is 0.605 ± 0.013.

Which protein stability index does the source give for GRLFCAALPLPL here?
Its protein stability index is 0.666 ± 0.089.

With RIPLYAFLPPID as the sequence, how does the protein stability index read?
Its protein stability index is 0.745 ± 0.066.

For KKQLIPPKHHQR, which protein stability index is on record?
Its protein stability index is 0.661 ± 0.022.

Which protein stability index does the source give for HDGPYPALLATK here?
The protein stability index was 0.606 ± 0.069.

FMLRTCFLTTSK was tested. Which protein stability index did it give?
The protein stability index was 0.718 ± 0.027.

With LGMCGTCQREVG as the sequence, how does the protein stability index read?
The protein stability index was 0.708 ± 0.027.

With RWARGGSRGGGG as the sequence, how does the protein stability index read?
The protein stability index was 0.703 ± 0.044.

With GKVSVSGRELGG as the sequence, how does the protein stability index read?
The protein stability index was 0.65 ± 0.033.

Which protein stability index does the source give for TSPGCPFAFITL here?
The protein stability index was 0.714 ± 0.052.

With PPPPPHVHPPSP as the sequence, how does the protein stability index read?
The protein stability index was 0.689 ± 0.042.

GGDRGHVTGEVG was tested. Which protein stability index did it give?
The protein stability index was 0.657 ± 0.06.

With GRAGLDLACWWK as the sequence, how does the protein stability index read?
The protein stability index was 0.709 ± 0.03.

GRTWCFVGARPS was tested. Which protein stability index did it give?
The protein stability index was 0.698 ± 0.17.

With AESSLSLFPPPP as the sequence, how does the protein stability index read?
The protein stability index was 0.756 ± 0.059.

WSIGGKSFVGIA was tested. Which protein stability index did it give?
Its protein stability index is 0.676 ± 0.031.

For PSRPRPRRRRQA, which protein stability index is on record?
The protein stability index was 0.751 ± 0.073.

How did the protein stability index turn out when VGFLGFFVVEGV was run?
Its protein stability index is 0.545 ± 0.033.

HEKTGNNHKRGH was tested. Which protein stability index did it give?
The protein stability index was 0.628 ± 0.19.

How did the protein stability index turn out when LLFPALPPPPVR was run?
Its protein stability index is 0.674 ± 0.028.

For LNLRIGDVMRGG, which protein stability index is on record?
The protein stability index was 0.682 ± 0.022.

HLGHPSSRPSCL was tested. Which protein stability index did it give?
The protein stability index was 0.72 ± 0.057.

VLRGYRRVGVPP was tested. Which protein stability index did it give?
The protein stability index was 0.616 ± 0.016.

Which protein stability index does the source give for ALSFISYPFPLL here?
Its protein stability index is 0.642 ± 0.1.

How did the protein stability index turn out when SRTNVKVRKTGV was run?
The protein stability index was 0.6916 ± 0.0059.

Which protein stability index does the source give for PHPRFYPSTPPP here?
The protein stability index was 0.64827 ± 7.8e-06.

How did the protein stability index turn out when LYKEQRNNCGKI was run?
Its protein stability index is 0.662 ± 0.021.

How did the protein stability index turn out when QSAPPPLPPRRR was run?
Its protein stability index is 0.69 ± 0.03.

Which protein stability index does the source give for WLCLARGRLGLH here?
The protein stability index was 0.583 ± 0.011.

For LFGLLSSPLCVD, which protein stability index is on record?
The protein stability index was 0.63 ± 0.042.

Which protein stability index does the source give for SRLPRGTYRGCP here?
Its protein stability index is 0.711 ± 0.076.

GLCHFVRLSCFC was tested. Which protein stability index did it give?
Its protein stability index is 0.5186 ± 0.0024.

For GSGRRGLMGRKS, which protein stability index is on record?
The protein stability index was 0.728 ± 0.011.

For DLKIKKNDKKKK, which protein stability index is on record?
Its protein stability index is 0.658 ± 0.0086.

Which protein stability index does the source give for SSSDPYLLFCHS here?
Its protein stability index is 0.741 ± 0.37.

Which protein stability index does the source give for KRMPDERAKAGP here?
Its protein stability index is 0.694 ± 0.0079.

For GKSGGAVRGCGG, which protein stability index is on record?
Its protein stability index is 0.657 ± 0.044.

How did the protein stability index turn out when TLAPSKHGSNRT was run?
Its protein stability index is 0.666 ± 0.049.

PPPPTTATRQQT was tested. Which protein stability index did it give?
The protein stability index was 0.691 ± 0.016.

Which protein stability index does the source give for ALFLDFCFPCLP here?
The protein stability index was 0.619 ± 0.011.

LFPSPPPPRSSL was tested. Which protein stability index did it give?
Its protein stability index is 0.7697 ± 0.005.

With GKKRANQSRSLP as the sequence, how does the protein stability index read?
Its protein stability index is 0.76 ± 0.19.

With GGVAAVGGPWGN as the sequence, how does the protein stability index read?
The protein stability index was 0.75 ± 0.052.

For ASLEASFYVVPC, which protein stability index is on record?
Its protein stability index is 0.641 ± 0.014.

PHTLPPLLRHAP was tested. Which protein stability index did it give?
Its protein stability index is 0.693 ± 0.015.

With SHPHLSSPPSRP as the sequence, how does the protein stability index read?
Its protein stability index is 0.678 ± 0.055.

Which protein stability index does the source give for HLFVCGNGVSAT here?
The protein stability index was 0.684 ± 0.029.

SPLLASPSHLSL was tested. Which protein stability index did it give?
The protein stability index was 0.71 ± 0.083.

Which protein stability index does the source give for RKKINKRLCLGN here?
Its protein stability index is 0.692 ± 0.033.

ARSTGATSEHKQ was tested. Which protein stability index did it give?
Its protein stability index is 0.667 ± 0.062.

How did the protein stability index turn out when VSCGRVGVARLG was run?
Its protein stability index is 0.641 ± 0.016.

How did the protein stability index turn out when MISIKNEKKKYT was run?
The protein stability index was 0.685 ± 0.069.

For AAPDLARPPLLR, which protein stability index is on record?
The protein stability index was 0.685 ± 0.018.

With FGAGVWVGRVGG as the sequence, how does the protein stability index read?
Its protein stability index is 0.649 ± 0.048.

How did the protein stability index turn out when MITQVIKRRKRK was run?
The protein stability index was 0.688 ± 0.041.

With RVRLSLDSPLGL as the sequence, how does the protein stability index read?
Its protein stability index is 0.684 ± 0.044.

Which protein stability index does the source give for RVGWCPCTGDRR here?
Its protein stability index is 0.663 ± 0.019.

SPRLPPPLFLPL was tested. Which protein stability index did it give?
Its protein stability index is 0.638 ± 0.02.

For GWGGEGQNGSEG, which protein stability index is on record?
Its protein stability index is 0.638 ± 0.019.

Which protein stability index does the source give for ETVNGVGSRWGF here?
The protein stability index was 0.741 ± 0.1.

Which protein stability index does the source give for PALQHTVPPPPQ here?
Its protein stability index is 0.579 ± 0.012.

Which protein stability index does the source give for GGGVGMLRRSGG here?
The protein stability index was 0.689 ± 0.054.

Which protein stability index does the source give for SISANPGAPHFP here?
The protein stability index was 0.666 ± 0.022.
